From US20160237160A1 (Bayer, published 2016)

Tests used:
Assay in all cases: ELISA, Fc fusion protein coated at 1 µg/ml, TPP-2090 at 75 nM, Amplex Red;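 also: binding reported as ELISA signal intensity in Rfu against a panel of TNF receptor superfamily members presented as Fc fusion proteins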
[1] = target: T1, Osteoprotegerin (TNFRSF11B) Fc fusion protein (Human, UniProt O00300 22-194, limits assumed)
T1 construct: extracellular domain; bought
T1 sequence (looked up): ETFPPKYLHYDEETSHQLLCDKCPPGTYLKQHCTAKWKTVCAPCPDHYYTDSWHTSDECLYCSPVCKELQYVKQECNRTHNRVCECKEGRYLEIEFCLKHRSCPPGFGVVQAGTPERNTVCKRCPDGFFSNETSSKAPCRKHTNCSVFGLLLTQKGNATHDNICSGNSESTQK
Description: (§1) Shown is the result of an ELISA: Y is “ELISA signal intensity [Rfu]”; X are “TNF receptor superfamily proteins tested (Fc-fusion proteins)”: 1 is “TWEAKR”; 2 is “TWEAKR”; 3 is “Apo-3”; 4 is “Trail-R1”; 5 is “Trail-R2”; 6 is “CD385”; 7 is “CD95”; 8 is “Rank”; 9 is “TNF-R1”; 10 is “TNF-R2”; 11 is “BAFF-R”; 12 is “DcR3”; 13 is “BCMA”; 14 is “TACI”; 15 is “OX40”; 16 is “CD30”; 17 is “CD27”; 18 is “CD40”; 19 is “Osteoprotegerin”; 20 is “EDAR”; 21 is “GITR”; 22 is “HVEM”; 23 is “NGF R”; 24 is “Trail R3”; 25 is “Lymphotioxin B R”; 26 is “Trail R4”; 27 is “EDA2R”; 28 is “TROY”; 29 is “RELT”; 30 is “4-1BB”.
(§2) To collect dose-response data a serial 3fold dilution of biotinylated IgG starting with a concentration of 2 μM was used as soluble binding partner. Detection was done with anti-hIgG1-HRP and Amplex Red.

[2] = target: T2, TACI (TNFRSF13B) Fc fusion protein (Human, UniProt O14836 1-165)
T2 construct: extracellular domain; bought
T2 sequence (looked up): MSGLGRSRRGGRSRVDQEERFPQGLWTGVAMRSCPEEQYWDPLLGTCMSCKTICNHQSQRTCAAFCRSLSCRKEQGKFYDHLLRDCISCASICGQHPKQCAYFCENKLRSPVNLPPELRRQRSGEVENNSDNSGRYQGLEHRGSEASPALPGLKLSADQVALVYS
Description: as §1, §2

[3] = target: T3, CD95 (TNFRSF6) Fc fusion protein (Human, UniProt P25445 26-173)
T3 construct: extracellular domain; bought
T3 sequence (looked up): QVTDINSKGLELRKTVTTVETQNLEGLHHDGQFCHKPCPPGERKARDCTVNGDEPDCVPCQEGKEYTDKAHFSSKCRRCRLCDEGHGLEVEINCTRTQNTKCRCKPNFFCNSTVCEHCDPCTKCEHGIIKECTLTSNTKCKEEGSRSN
Description: as §1, §2

EDAR Fc fusion protein = target: T4, EDAR Fc fusion protein (Human, UniProt Q9UNE0 27-187)
T4 construct: extracellular domain; bought
T4 sequence (looked up): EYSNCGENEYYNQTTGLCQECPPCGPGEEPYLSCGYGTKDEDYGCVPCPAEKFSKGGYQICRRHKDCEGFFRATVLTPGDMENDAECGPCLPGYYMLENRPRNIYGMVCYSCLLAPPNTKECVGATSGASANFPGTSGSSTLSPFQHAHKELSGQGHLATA
Description: as §1, §2

[4] = target: T5, CD-385 (TNFRSF21) Fc fusion protein (Human, UniProt O75509 42-349)
T5 construct: extracellular domain; bought
T5 sequence (looked up): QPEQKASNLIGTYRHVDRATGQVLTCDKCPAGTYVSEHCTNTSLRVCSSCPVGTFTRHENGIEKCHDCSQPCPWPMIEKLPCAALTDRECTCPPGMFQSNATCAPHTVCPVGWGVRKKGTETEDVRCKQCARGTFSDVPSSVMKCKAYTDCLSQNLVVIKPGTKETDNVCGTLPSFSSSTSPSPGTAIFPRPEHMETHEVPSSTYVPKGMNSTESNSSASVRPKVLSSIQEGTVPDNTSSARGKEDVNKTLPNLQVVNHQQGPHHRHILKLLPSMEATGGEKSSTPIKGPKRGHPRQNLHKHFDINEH
Description: as §1, §2

[5] = target: T6, HVEM (TNFRSF14) Fc fusion protein (Human, UniProt Q92956 39-202)
T6 construct: extracellular domain; bought
T6 sequence (looked up): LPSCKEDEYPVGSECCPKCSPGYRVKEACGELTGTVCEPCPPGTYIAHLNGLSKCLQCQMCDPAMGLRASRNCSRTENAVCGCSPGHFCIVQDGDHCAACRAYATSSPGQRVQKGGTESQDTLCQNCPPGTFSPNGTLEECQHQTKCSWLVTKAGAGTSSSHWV
Description: as §1, §2

[6] = target: T7, BCMA (TNFRSF17) Fc fusion protein (Human, UniProt Q02223 1-54)
T7 construct: extracellular domain; bought
T7 sequence (looked up): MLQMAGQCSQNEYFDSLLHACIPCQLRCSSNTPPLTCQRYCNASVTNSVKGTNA
Description: as §1, §2

[7] = target: T8, Trail-R2 (TNFRSF10B) Fc fusion protein (Human, UniProt O14763 56-210)
T8 construct: extracellular domain; bought
Description: as §1, §2

[8] = target: T9, OX40 (TNFRSF4) Fc fusion protein (Human, UniProt P43489 29-214)
T9 construct: extracellular domain; bought
T9 sequence (looked up): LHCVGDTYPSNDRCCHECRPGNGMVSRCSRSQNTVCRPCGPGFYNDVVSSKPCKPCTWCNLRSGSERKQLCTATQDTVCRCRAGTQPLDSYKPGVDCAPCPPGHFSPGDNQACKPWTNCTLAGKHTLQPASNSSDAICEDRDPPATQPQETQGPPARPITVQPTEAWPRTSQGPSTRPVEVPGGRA
Description: as §1, §2

[9] = target: T10, Trail R3 (TNFRSF10C) Fc fusion protein (Human, UniProt O14798 26-221, limits assumed)
T10 construct: extracellular domain; bought
T10 sequence (looked up): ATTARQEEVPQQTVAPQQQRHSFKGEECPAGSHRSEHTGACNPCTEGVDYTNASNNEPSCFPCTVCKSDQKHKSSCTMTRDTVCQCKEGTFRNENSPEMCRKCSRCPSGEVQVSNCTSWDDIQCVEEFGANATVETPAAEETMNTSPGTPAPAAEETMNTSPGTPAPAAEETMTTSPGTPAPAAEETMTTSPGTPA
Description: as §1, §2

[10] = target: T11, TNF-R1 (TNFRSF1A) Fc fusion protein (Human, UniProt P19438 30-211)
T11 construct: extracellular domain; bought
T11 sequence (looked up): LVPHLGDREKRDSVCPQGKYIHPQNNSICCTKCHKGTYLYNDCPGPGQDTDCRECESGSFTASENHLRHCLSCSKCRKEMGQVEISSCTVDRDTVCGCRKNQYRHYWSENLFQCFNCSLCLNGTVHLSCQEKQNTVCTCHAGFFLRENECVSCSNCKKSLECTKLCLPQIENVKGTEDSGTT
Description: as §1, §2

Measured: binding result

B1: TPP-2090 (antibody, human IgG1, kappa, V domains shown)
VH: EVQLLESGGGLVQPGGSLRLSCAASGFTFSPYPMIWVRQAPGKGLEWVSYISPSGGSTHYADSVKGRFTISRDNSKNTLYLQMNSLRAEDTAVYYCARGGDTYFDYFDYWGQGTLVTVSS
VL: DIQMTQSPSSLSASVGDRVTITCRASQSISGYLNWYQQKPGKAPKLLIYQASSLQSGVPSRFSGSGSGTDFTLTISSLQPEDFATYYCQQSYTSPFITFGQGTKVEIKR
notes: Human IgG1
no binding (tested: 75 nM): [1] | [2] | [3] | EDAR Fc fusion protein | [4] | [5] | [6] | [7] | [8] | [9] | [10]
